From patent US20240190960A1 (Chugai, published 2024)

T1: Biotinylated human CD3εδ heterodimer (Fc-fused human CD3ε / Fc-fused human CD3δ) (human, biotin on the Avi tag (BirA))
T1 chain 1: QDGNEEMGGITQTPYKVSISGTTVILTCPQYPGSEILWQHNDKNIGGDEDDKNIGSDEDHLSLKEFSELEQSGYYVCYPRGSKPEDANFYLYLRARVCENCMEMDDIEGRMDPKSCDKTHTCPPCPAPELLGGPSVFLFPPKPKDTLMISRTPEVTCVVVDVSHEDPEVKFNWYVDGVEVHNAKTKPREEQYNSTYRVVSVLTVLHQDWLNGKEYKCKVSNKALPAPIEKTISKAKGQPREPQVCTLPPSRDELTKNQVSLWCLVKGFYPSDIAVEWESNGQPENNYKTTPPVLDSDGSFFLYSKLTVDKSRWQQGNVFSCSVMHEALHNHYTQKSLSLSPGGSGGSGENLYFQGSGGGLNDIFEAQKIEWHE
T1 chain 2: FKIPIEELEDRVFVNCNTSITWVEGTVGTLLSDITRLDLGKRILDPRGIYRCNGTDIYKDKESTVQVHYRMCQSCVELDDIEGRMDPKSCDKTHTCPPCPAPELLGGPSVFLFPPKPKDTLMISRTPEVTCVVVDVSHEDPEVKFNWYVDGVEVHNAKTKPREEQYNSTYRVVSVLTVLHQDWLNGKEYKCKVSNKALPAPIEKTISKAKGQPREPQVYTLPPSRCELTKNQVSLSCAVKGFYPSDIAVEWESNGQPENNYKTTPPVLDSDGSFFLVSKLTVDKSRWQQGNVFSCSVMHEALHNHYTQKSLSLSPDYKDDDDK

B1: CE115HA000 one arm (CE115HA000-pE22Hh/GLS3000-k0//Kn010) (antibody, human IgG1, kappa, L234A L235A, N297A)
heavy: QVQLVESGGGVVQPGRSLRLSCAASGFTFSNAWMHWVRQAPGKGLEWVAQIKAKSNNYATYYAESVKGRFTISRDDSKNSLYLQMNSLKTEDTAVYYCRYVHYGAYYGVDAWGQGTTVTVSSASTKGPSVFPLAPSSKSTSGGTAALGCLVKDYFPEPVTVSWNSGALTSGVHTFPAVLQSSGLYSLSSVVTVPSSSLGTQTYICNVNHKPSNTKVDKKVEPKSCDKTHTCPPCPAPEAAGGPSVFLFPPKPKDTLMISRTPEVTCVVVDVSHEDPEVKFNWYVDGVEVHNAKTKPREEQYASTYRVVSVLTVLHQDWLNGKEYKCKVSNKALPAPIEKTISKAKGQPREPQVYTLPPSRCELTKNQVSLSCAVKGFYPSDIAVEWESNGQPENNYKTTPPVLDSDGSFFLVSKLTVDKSRWQQGNVFSCSVMHEALHNHYTQKSLSLSPDYKDDDDK
light: DIVMTQSPLSLPVTPGEPASISCRSSQSLVHSNRNTYLHWYQQKPGQAPRLLIYKVSNRFSGVPDRFSGSGSGTDFTLKISRVEAEDVGVYYCGQGTQVPYTFGQGTKLEIKRTVAAPSVFIFPPSDEQLKSGTASVVCLLNNFYPREAKVQWKVDNALQSGNSQESVTEQDSKDSTYSLSSTLTLSKADYEKHKVYACEVTHQGLSSPVTKSFNRGEC
chain: not shown
notes: also called one-arm antibody CE115HA000
B2: BiAb of CE115HA000-BS03a/GLS3000-k0 with the IC17 arm (bispecific antibody, human IgG1, kappa, N297A)
heavy 1: QVQLVESGGGVVQPGRSLRLSCAASGFTFSNAWMHWVRQAPGKGLEWVAQIKAKSNNYATYYAESVKGRFTISRDDSKNSLYLQMNSLKTEDTAVYYCRYVHYGAYYGVDAWGQGTTVTVSSASTKGPSVFPLAPSSRSTSESTAALGCLVKDYFPEPVTVSWNSGALTSGVHTFPAVLQSSGLYSLSSVVTVPSSSLGTKTYTCNVDHKPSNTKVDKRVEPKSCDKTHTCPPCPAPELRRGPKVFLFPPKPKDTLMISRTPEVTCVVVDVSQEDPEVQFNWYVDGVEVHNAKTKPREEQFASTYRVVSVLTVLHQDWLNGKEYKCKVSNKGLPSSIEKTISKAKGQPREPQVYTLPPSREEMTKNQVSLTCLVKGFYPSDIAVEWESNGQPENNYKTTPPYLDSDGSFFLYSKLTVDKSRWQQGNVFSCSVMHEALHNHYTQESLSLSP
light 1: DIVMTQSPLSLPVTPGEPASISCRSSQSLVHSNRNTYLHWYQQKPGQAPRLLIYKVSNRFSGVPDRFSGSGSGTDFTLKISRVEAEDVGVYYCGQGTQVPYTFGQGTKLEIKRTVAAPSVFIFPPSDEQLKSGTASVVCLLNNFYPREAKVQWKVDNALQSGNSQESVTEQDSKDSTYSLSSTLTLSKADYEKHKVYACEVTHQGLSSPVTKSFNRGEC
heavy 2: QVQLQQSGPQLVRPGASVKISCKASGYSFTSYWMHWVNQRPGQGLEWIGMIDPSYSETRLNQKFKDKATLTVDKSSSTAYMQLSSPTSEDSAVYYCALYGNYFDYWGQGTTLTVSSASTKGPSVFPLAPSSRSTSESTAALGCLVKDYFPEPVTVSWNSGALTSGVHTFPAVLQSSGLYSLSSVVTVPSSSLGTKTYTCNVDHKPSNTKVDKRVEPKSCDKTHTCPPCPAPELRRGPKVFLFPPKPKDTLMISRTPEVTCVVVDVSQEDPEVQFNWYVDGVEVHNAKTKPREEQFASTYRVVSVLTVLHQDWLNGKEYKCKVSNKGLPSSIEKTISKAKGQPREPQVYTLPPSREEMTKNQVSLTCLVKGFYPSDIAVEWESNGQPENNYKTTPPYLDSDGSFFLYSKLTVDKSRWQQGNVFSCSVMHEALHNHYTQESLSLSP
light 2: DIQMTQSSSSFSVSLGDRVTITCKASEDIYNRLAWYQQKPGNAPRLLISGATSLETGVPSRFSGSGSGKDYTLSITSLQTEDVATYYCQQYWSTPYTFGGGTKLEVKRTVAAPSVFIFPPSDEQLKSGTASVVCLLNNFYPREAKVQWKVDNALQSGNSQESVTEQDSKDSTYSLSSTLTLSKADYEKHKVYACEVTHQGLSSPVTKSFNRGEC
notes: how the CE115/IC17 BiAb was made is not described
B3: BiAb of CE115HA056-BS03a/GLS3000-k0 with the IC17 arm (bispecific antibody, human IgG1, kappa, N297A)
heavy 1: QVQLVESGGGVVQPGRSLRLSCAASGFTFSNAWMHWVRQAPGKGLEWVAQIKAKSNNYATYYAESVKGRFTISRDDSKNSLYLQMNSLKTEDTAVYYCRYAHYGAYYGVDAWGQGTTVTVSSASTKGPSVFPLAPSSRSTSESTAALGCLVKDYFPEPVTVSWNSGALTSGVHTFPAVLQSSGLYSLSSVVTVPSSSLGTKTYTCNVDHKPSNTKVDKRVEPKSCDKTHTCPPCPAPELRRGPKVFLFPPKPKDTLMISRTPEVTCVVVDVSQEDPEVQFNWYVDGVEVHNAKTKPREEQFASTYRVVSVLTVLHQDWLNGKEYKCKVSNKGLPSSIEKTISKAKGQPREPQVYTLPPSREEMTKNQVSLTCLVKGFYPSDIAVEWESNGQPENNYKTTPPYLDSDGSFFLYSKLTVDKSRWQQGNVFSCSVMHEALHNHYTQESLSLSP
light 1: DIVMTQSPLSLPVTPGEPASISCRSSQSLVHSNRNTYLHWYQQKPGQAPRLLIYKVSNRFSGVPDRFSGSGSGTDFTLKISRVEAEDVGVYYCGQGTQVPYTFGQGTKLEIKRTVAAPSVFIFPPSDEQLKSGTASVVCLLNNFYPREAKVQWKVDNALQSGNSQESVTEQDSKDSTYSLSSTLTLSKADYEKHKVYACEVTHQGLSSPVTKSFNRGEC
heavy 2: QVQLQQSGPQLVRPGASVKISCKASGYSFTSYWMHWVNQRPGQGLEWIGMIDPSYSETRLNQKFKDKATLTVDKSSSTAYMQLSSPTSEDSAVYYCALYGNYFDYWGQGTTLTVSSASTKGPSVFPLAPSSRSTSESTAALGCLVKDYFPEPVTVSWNSGALTSGVHTFPAVLQSSGLYSLSSVVTVPSSSLGTKTYTCNVDHKPSNTKVDKRVEPKSCDKTHTCPPCPAPELRRGPKVFLFPPKPKDTLMISRTPEVTCVVVDVSQEDPEVQFNWYVDGVEVHNAKTKPREEQFASTYRVVSVLTVLHQDWLNGKEYKCKVSNKGLPSSIEKTISKAKGQPREPQVYTLPPSREEMTKNQVSLTCLVKGFYPSDIAVEWESNGQPENNYKTTPPYLDSDGSFFLYSKLTVDKSRWQQGNVFSCSVMHEALHNHYTQESLSLSP
light 2: DIQMTQSSSSFSVSLGDRVTITCKASEDIYNRLAWYQQKPGNAPRLLISGATSLETGVPSRFSGSGSGKDYTLSITSLQTEDVATYYCQQYWSTPYTFGGGTKLEVKRTVAAPSVFIFPPSDEQLKSGTASVVCLLNNFYPREAKVQWKVDNALQSGNSQESVTEQDSKDSTYSLSSTLTLSKADYEKHKVYACEVTHQGLSSPVTKSFNRGEC
notes: See m38 on the IC17 arm
B4: CE115HA056 one arm (CE115HA056-pE22Hh/GLS3000-k0//Kn010) (antibody, human IgG1, kappa, L234A L235A, N297A)
heavy: QVQLVESGGGVVQPGRSLRLSCAASGFTFSNAWMHWVRQAPGKGLEWVAQIKAKSNNYATYYAESVKGRFTISRDDSKNSLYLQMNSLKTEDTAVYYCRYAHYGAYYGVDAWGQGTTVTVSSASTKGPSVFPLAPSSKSTSGGTAALGCLVKDYFPEPVTVSWNSGALTSGVHTFPAVLQSSGLYSLSSVVTVPSSSLGTQTYICNVNHKPSNTKVDKKVEPKSCDKTHTCPPCPAPEAAGGPSVFLFPPKPKDTLMISRTPEVTCVVVDVSHEDPEVKFNWYVDGVEVHNAKTKPREEQYASTYRVVSVLTVLHQDWLNGKEYKCKVSNKALPAPIEKTISKAKGQPREPQVYTLPPSRCELTKNQVSLSCAVKGFYPSDIAVEWESNGQPENNYKTTPPVLDSDGSFFLVSKLTVDKSRWQQGNVFSCSVMHEALHNHYTQKSLSLSPDYKDDDDK
light: DIVMTQSPLSLPVTPGEPASISCRSSQSLVHSNRNTYLHWYQQKPGQAPRLLIYKVSNRFSGVPDRFSGSGSGTDFTLKISRVEAEDVGVYYCGQGTQVPYTFGQGTKLEIKRTVAAPSVFIFPPSDEQLKSGTASVVCLLNNFYPREAKVQWKVDNALQSGNSQESVTEQDSKDSTYSLSSTLTLSKADYEKHKVYACEVTHQGLSSPVTKSFNRGEC
chain: not shown
notes: One-arm format; also called one-arm antibody CE115HA056

Key:
[1] = molecular target: T1, Biotinylated human CD3εδ heterodimer …; assay: BLI (Octet RED384), 37 C; biotinylated CD3εδ on streptavidin sensor, one-arm antibody in solution for 120 s (0-1000 nM used, the concentration shown is not given)
Protocol: Using an Octet RED 384 (ForteBio), a streptavidin sensor (ForteBio) was reacted with CD3εδ prepared at 0.2 μM in ACES at 37° C. for 300 seconds. […] Response values were extracted every three seconds, and graphs were depicted using Microsoft Excel 2013 (Microsoft).

[2] = molecular target: T2, Human CD3εδ heterodimer (soluble human CD3ε with FLAG tag / soluble human CD3δ with His tag) (human, UniProt P07766 22-126; P04234 22-105); assay: SPR (Biacore T200), BiAb captured on protein A, CD3εδ 0-15000 nM as analyte, 37 C
T2 construct: Positions are counted from 1, so the entries may include the signal peptides
Protocol: (3) Evaluation of Binding Properties of Clamping Antibodies by SPR Using an Amine Coupling Kit (GE Healthcare), SuRe Protein A (GE Healthcare) Prepared at 25 μg/mL in Acetate4.5 (GE Healthcare) was Immobilized onto Sensor Chip CM4 at Approximately 1200 RU Per Flow Cell.
HBS-EP+(GE Healthcare) was used for the running buffer, and the measurement was carried out at 37° C. Each antibody was reacted at a flow rate of 10 μL/min for 60 seconds to capture 1000 RU, and analyte CD3εδ prepared at 0 nM, 4.8 nM, 24 nM, 120 nM, 600 nM, 3000 nM, or 15000 nM was allowed to act at a flow rate of 30 μL/min for 60 seconds to monitor the binding phase, and HBS-EP+ was passed at a flow rate of 30 μL/min for 120 seconds to monitor the dissociation phase. The sensor chip was regenerated by passing Glycine1.5 and 25 mM NaOH, each at a flow rate of 30 μL/min for 30 seconds. The dissociation constant KD (M) was calculated based on the association rate constant ka (1/Ms) and the dissociation rate constant kd (1/s), which are kinetic parameters calculated from the sensorgram obtained by the measurement. Biacore T200 Evaluation Software (GE Healthcare) was used for the calculation of each parameter.

| Binder | binding result [1] | Kd [2] |
| --- | --- | --- |
| B1 | binds |  |
| B2 |  | 0.35 µM |
| B3 |  | 7.4 µM |
| B4 | binds |  |
